Sequences and labels used below:
B1: Ribonuclease, P00648 (parent)
chain: MMKMEGIALKKRLSWISVCLLVLVSAAGMLFSTAAKTETSSHKAHTEAQVINTFDGVADYLQTYHKLPDNYITKSEAQALGWVASKGNLADVAPGKSIGGDIFSNREGKLPGKSGRTWREADINYTSGFRNSDRILYSSDWLIYKTTDHYQTFTKIR

The data set covers variants of B1. The settings on record: Bacillus amyloliquefaciens; pH 6.3; 25 °C; Urea; Fluorescence; MES 450 mM; reversible: yes; structure 1BNI; whole UniProt chain shown.

Take A79Q: the “ddG of mutation (higher = less stable)” value is 0.35 kcal/mol, the denaturant m value is 1.95 kcal/mol/M, the “denaturant midpoint (higher = more stable)” value (“denaturant midpoint” below) is 4.3 M and the unfolding free energy came to 8.48 kcal/mol.
On to A79H, for which the “ddG of mutation (higher = less stable)” value is 0.7 kcal/mol, the denaturant m value stood at 1.94 kcal/mol/M, the “denaturant midpoint” value came out at 4.1 M and the unfolding free energy worked out at 8.13 kcal/mol.
The matching figures for A79K: 0.1 kcal/mol, 1.94 kcal/mol/M, 4.5 M and 8.73 kcal/mol.
For A79V, in that order: 0.34 kcal/mol, 2.05 kcal/mol/M, 4.1 M and 8.49 kcal/mol.
Regarding A79R, the “ddG of mutation (higher = less stable)” value came to 0.2 kcal/mol, the denaturant m value is 1.91 kcal/mol/M, the “denaturant midpoint” value is 4.5 M and the unfolding free energy came to 8.63 kcal/mol.
The matching figures for A79G: 0.65 kcal/mol, 1.98 kcal/mol/M, 4.1 M and 8.18 kcal/mol.
The matching figures for A79S: 0.16 kcal/mol, 1.98 kcal/mol/M, 4.3 M and 8.67 kcal/mol.
For A79D, the “ddG of mutation (higher = less stable)” value is 0.41 kcal/mol, the denaturant m value is 1.99 kcal/mol/M, the “denaturant midpoint” value amounted to 4.2 M and the unfolding free energy is 8.42 kcal/mol.
A79M: the “ddG of mutation (higher = less stable)” value was found to be 0.08 kcal/mol, the denaturant m value came out at 1.97 kcal/mol/M, the “denaturant midpoint” value is 4.4 M and the unfolding free energy came to 8.75 kcal/mol.
Regarding A79Y, the “ddG of mutation (higher = less stable)” value is 0.7 kcal/mol, the denaturant m value came to 1.95 kcal/mol/M, the “denaturant midpoint” value turned out to be 4.1 M and the unfolding free energy was found to be 8.13 kcal/mol.
As to A79C, the “ddG of mutation (higher = less stable)” value stood at 1.85 kcal/mol, the denaturant m value was found to be 1.71 kcal/mol/M, the “denaturant midpoint” value worked out at 4 M and the unfolding free energy worked out at 6.98 kcal/mol.
The matching figures for A79P: 4.12 kcal/mol, 1.89 kcal/mol/M, 2.4 M and 4.71 kcal/mol.
The matching figures for A79E: -0.13 kcal/mol, 2.08 kcal/mol/M, 4.3 M and 8.96 kcal/mol.
For the variant A79N, the “ddG of mutation (higher = less stable)” value turned out to be 0.33 kcal/mol, the denaturant m value was 2 kcal/mol/M, the “denaturant midpoint” value was found to be 4.2 M and the unfolding free energy is 8.5 kcal/mol.
Regarding A79W, the “ddG of mutation (higher = less stable)” value was 1.14 kcal/mol, the denaturant m value stood at 1.88 kcal/mol/M, the “denaturant midpoint” value was 4 M and the unfolding free energy is 7.69 kcal/mol.
Consider A79L, for which the “ddG of mutation (higher = less stable)” value is -0.08 kcal/mol, the denaturant m value worked out at 2.02 kcal/mol/M, the “denaturant midpoint” value came out at 4.4 M and the unfolding free energy stood at 8.91 kcal/mol.
A79F: the “ddG of mutation (higher = less stable)” value came out at 0.43 kcal/mol, the denaturant m value is 1.98 kcal/mol/M, the “denaturant midpoint” value is 4.2 M and the unfolding free energy is 8.4 kcal/mol.

The values are drawn from FireProtDB (doi:10.1016/0022-2836(92)90907-2).
